Reference: paper doi:10.1101/089938

Biological target: Alanine racemase (Alr) from Streptomyces coelicolor A3(2), His6-tagged (Streptomyces coelicolor A3(2)) (UniProt O86786)
Assay: SEC

Q: With “Alanine racemase (Alr) from Streptomyces coelicolor A3(2), His6-tagged (from UniProt O86786 1-391) (enzyme)” as the substance, how does the stoichiometry N read?
A: 2
